Stoichiometry N data for six substances are collected here from paper PMC5967840.

Among the targets are CC-Tri3-R4; CC-R4-Tri3; CC-Tri3-K4.
What all share (test): AUC; sedimentation velocity (60 krpm) and sedimentation equilibrium (six rotor speeds, 30-48 krpm, single ideal species model); 325 uM peptide in PI buffer (10 mM potassium phosphate pH 7.4), 1.625 mM TCEP, 25 mM NaCl, 20 °C
The target in assay [1] is CC-Tri3 with tetra-lysine (K4) appended to the N terminus.
Assay [2] deals with CC-Tri3 variant with a negatively charged E4 block at the N terminus.
The target of assay [3] is CC-Tri3 variant with a negatively charged E4 block at the C terminus.

On to “CC-Tri3 with tetra-lysine (K4) appended to the N terminus (peptide)”, for which the stoichiometry N (as a rule, a count of units in the complex or per binding partner) in assay [1] turned out to be 3.

In assay [2], “CC-Tri3 variant with a negatively charged E4 block at the N terminus (peptide)” had a stoichiometry N of 3.

Substance CC-Tri3-R4 (peptide) registered a stoichiometry N with CC-Tri3-R4 of 3.

As for “CC-Tri3 variant with a negatively charged E4 block at the C terminus (peptide)”, the stoichiometry N in assay [3] was 3.

CC-R4-Tri3 (peptide): the stoichiometry N in the assay with CC-R4-Tri3 was found to be 3.

Regarding CC-Tri3-K4 (peptide), the stoichiometry N in the assay with CC-Tri3-K4 was determined as 3.
